Test results reported in patent US20120219545A1.

Legend:
[1] = target: IgE of the serum pool of subjects 14, 47 and 48 (human); experiment: cell-based or functional assay
[2] = target: serum IgE of subject 2 (human); experiment: ELISA inhibition; serum of subject 2 preincubated with rSCP, IgE binding to plate-coated boiled shrimp extract
[3] = target: serum IgE of subject 43 (human); experiment: ELISA inhibition; serum of subject 43 preincubated with rSCP (printed 25 mg/mL), IgE binding to plate-coated boiled shrimp extract

B1: recombinant shrimp sarcoplasmic calcium-binding protein (rSCP) (protein, not shown: small tags and cut ends)
chain: MAYSWDNRVKYVVRYMYDIDNNGFLDKNDFECLAVRNTLIEGRGEFSADAYANNQKIMRNLWNEIAELADFNKDGEVTVDEFKQAVQKHCQGKKYGDFPGAFKVFIANQFKAIDVNGDGKVGLDEYRLDCITRSAFAEVKEIDDAYNKLTTEDDRKAGGLTLERYQDLYAQFISNPDESCSACYLFGPLKVVQ
- mediator release (beta-hexosaminidase) from RBL-2H3 cells (% of total possible release) [1]: 30
- mediator release (beta-hexosaminidase) from RBL-2H3 cells ([1]; scale: % of the release obtained with BS extract): 65
- maximal inhibition [2]: 48%
- maximal inhibition [3]: 79%
